According to the supplement of paper PMC9732359:
± gives the uncertainty stated by the source.

Test: protein stability index of a GFP-peptide fusion (yeast GPS) (PSI 1-4); higher = more stable; sorted into four equal gates, so the index is relative within each strain
Outline: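 Plasmids isolated from each sorting gate were PCR-amplified and Illumina-sequenced, and barcodes assigned the reads to strains. The gates, four of equal size, were set by GFP/Cherry fluorescence ratio on mid-log cultures in leucine-free medium. These cultures were yeast carrying a pooled library of tiled 17-residue yeast protein peptides fused downstream of GFP on a plasmid that also expresses Cherry. The protein stability index is the sum of every gate's read frequency times its gate number.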

Sequence	protein stability index (doa10∆)	protein stability index (pdr5∆)	protein stability index (san1∆)	protein stability index (ubr1∆)
VGGKSTVQNEILGDLGK [FAS2]	3.02 ± 0.075	2.92 ± 0.1	2.18 ± 0.1	3.25 ± 0.11
NSISSQPASYHSVQETN [SSN2]	2.22 ± 0.049	2.54 ± 0.058	2.88 ± 0.068	2.69 ± 0.052
RRRSSTNKSKRPSITEA [MED1]	3.02 ± 0.09	3.15 ± 0.061	2.87 ± 0.08	3.04 ± 0.077
VLNQQLPIESQFVSKLV [BRR2]	1.74 ± 0.066	1.98 ± 0.048	1.96 ± 0.1	2.01 ± 0.043
NPEEVEQVAEEAAAAEE [RPS0B]	3.07 ± 0.092	3.03 ± 0.11	2.95 ± 0.12	3.26 ± 0.071
NVRMDTMANILYYPQKP [RPB2]	2.83 ± 0.11	3.23 ± 0.24	3.12 ± 0.1	2.99 ± 0.1
VSNNEANTPSIPTNPVD [SWI3]	3.14 ± 0.074	3.2 ± 0.09	2.97 ± 0.082	3.08 ± 0.065
IYISNLVRSIIAFDDLI [RPN8]	1.42 ± 0.066	1.36 ± 0.11	1.17 ± 0.23	1.27 ± 0.27
LLGIDATVPSGRPETYI [RPO31]	2.71 ± 0.15	2.32 ± 0.15		
RLENKLSEIESLDEILL [SRP68]	2.97 ± 0.095	2.99 ± 0.11	2.92 ± 0.11	3 ± 0.085
LNYGNICEPKETLSIFT [YJL039C/NUP192]	2.02 ± 0.061	1.75 ± 0.056	2.02 ± 0.12	1.73 ± 0.054
PSAEIREAYIENFAKGE [SWP82]	2.39 ± 0.073	2.63 ± 0.084	2.58 ± 0.1	2.4 ± 0.064
LEDMVFPTEIVGKRVRY [RPS7B]	1.57 ± 0.16	1.76 ± 0.088	2.5 ± 0.21	2.69 ± 0.055
YMQRTVEEAHDFNMKLA [RPB2]	3.09 ± 0.098	3.04 ± 0.1	3.02 ± 0.075	2.99 ± 0.062
ILDGLTVRLVNLFSSTG [SRB2]	3.1 ± 0.15	3.03 ± 0.16		
SDKTIVPTSIQTKRWPT [SIN4]	2.32 ± 0.059	2.6 ± 0.055	2.35 ± 0.054	2.77 ± 0.048
KQINHQGEEEELIALNL [RPB4]	3.34 ± 0.15	3.59 ± 0.13	3.2 ± 0.076	3.42 ± 0.11
PTMYTRLCICSGMLFEM [SIN4]	1.29 ± 0.041	1.28 ± 0.041	1.39 ± 0.08	1.44 ± 0.033
LTNLLSQLNIQLSQDEH [SRP72]	3.01 ± 0.048	3.03 ± 0.051	3.21 ± 0.046	3.09 ± 0.042
ECGTGTTIHTFNRKENP [RPN14]	2.11 ± 0.18	2.5 ± 0.1	2.21 ± 0.12	2.05 ± 0.13
FVKFITYLTQEILILIN [SIN4]	2.02 ± 0.05	1.7 ± 0.044	1.57 ± 0.069	1.59 ± 0.042
HGGGNHQHIGKASTISR [RPL2A]	3.18 ± 0.051	3.31 ± 0.052	3.08 ± 0.039	3.11 ± 0.04
YYNEISRDLDISSSTQC [POP6]	1.95 ± 0.091	2.56 ± 0.073	2.25 ± 0.093	2.3 ± 0.043
AIRRDARYNWICNPVHK [RPL15B]	3.03 ± 0.16	3.38 ± 0.13	3.37 ± 0.13	3.21 ± 0.081
SPPCYIIDHIPGHSLLL [SNF5]	2.14 ± 0.063	2.54 ± 0.057	2.3 ± 0.079	2.49 ± 0.047
TIYNLQHHVTDADKLSF [YML031W/NDC1]	1.94 ± 0.04	2.33 ± 0.053	1.98 ± 0.061	2.06 ± 0.04
LKKIRAHRGIRHFWGLR [RPS18A]	3.03 ± 0.11	2.74 ± 0.078	2.44 ± 0.079	2.62 ± 0.05
AKSISTSAKEPSENDVF [RPO31]	2.99 ± 0.072	3.06 ± 0.069	2.56 ± 0.083	3.2 ± 0.09
